Consider twelve molecules from patent publication US20250019450A1 (DIAGONAL THERAPEUTICS, published 2025).

Assay [1] addresses T1, human IL-12Rβ2, Acro (BLI analyte) (human, UniProt Q99665 24-622, limits assumed).
T1 sequence (looked up): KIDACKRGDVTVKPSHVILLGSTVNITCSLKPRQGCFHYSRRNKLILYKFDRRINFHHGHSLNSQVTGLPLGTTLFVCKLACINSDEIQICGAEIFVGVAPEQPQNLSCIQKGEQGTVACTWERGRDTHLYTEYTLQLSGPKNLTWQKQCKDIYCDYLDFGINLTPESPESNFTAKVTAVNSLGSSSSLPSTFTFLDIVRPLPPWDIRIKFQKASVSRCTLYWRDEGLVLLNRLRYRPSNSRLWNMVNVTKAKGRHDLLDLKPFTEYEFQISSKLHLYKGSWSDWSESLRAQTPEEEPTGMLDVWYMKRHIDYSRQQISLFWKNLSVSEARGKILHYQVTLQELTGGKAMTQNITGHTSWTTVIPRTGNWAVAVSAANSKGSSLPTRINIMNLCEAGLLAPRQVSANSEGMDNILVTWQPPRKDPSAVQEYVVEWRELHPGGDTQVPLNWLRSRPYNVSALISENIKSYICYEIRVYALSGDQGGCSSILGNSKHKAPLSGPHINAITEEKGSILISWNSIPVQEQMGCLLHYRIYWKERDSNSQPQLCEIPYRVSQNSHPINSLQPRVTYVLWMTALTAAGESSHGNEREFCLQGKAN
Kind of assay: BLI (Octet), antibody on AHC tip. Background: Biolayer interferometry detects binding as a change in optical thickness at a sensor tip.

Assay [2] has as its target human IL-12Rβ1, Acro (BLI analyte) (human, UniProt P42701 24-545). Kind of assay: BLI (Octet), antibody on AHC tip.
Assay [3] deals with human IL-12 receptor (IL-12Rβ1 and IL-12Rβ2) on HEK-Blue IL-12 cells (human, UniProt P42701 24-662; Q99665 24-862). Briefly: cell-based or functional assay.

B1: DGL514 (bispecific antibody, V domains shown)
V domain 1: QVQLVESGGGLAQAGGSLRLSCAASGRTFSNDDMAWFRQAPGKEREFVAHIDRNAASTNYADSVKGRFTISRDNAKNTVYLQMTRLKPEDTAVYYCAADPDHFGTTWYQQYTYWGPGTQVTVEP
V domain 2: QVQLVESGGGLVQPGGSLRLSCAASGFTFSNYAMSWIRQGPERGFEWVSRINSGGGTTSYADSVKGRFTISRDNAKNTLYLQMNSLKPEDTAVYYCAKHSHPDYSSNYYRPGQGTQVTVEP
notes: 97B1 x 67B2
In the case of B1, the Kd – broadly, the constant that tells how readily two partners part at equilibrium – in assay [1] was determined as 5.48 nM. In assay [2], this molecule showed a Kd of 9.86 nM. In assay [3], the EC50 (commonly the concentration that produces a half-maximal response) is 3.5e-11 M (implied) and the “Max Absorbance” value was 0.85.

B2: DGL515 (bispecific antibody, V domains shown)
V domain 1: QVQLVESGGGLAQAGGSLRLSCAASGRTFSNDDMAWFRQAPGKEREFVAHIDRNAASTNYADSVKGRFTISRDNAKNTVYLQMTRLKPEDTAVYYCAADPDHFGTTWYQQYTYWGPGTQVTVEP
V domain 2: QVQLVESGGGLVQAGGSLRVSCAASGRIPSLNTMAWYRQAPGKQREFVAFITNGGTTNYVDSVEGRFSISRDNTKNAVDLQMNSLKPEDTGVYYCNVQISQYPYNYWGQGTQVTVEP
notes: 97B1 x 85B2
In assay [1], B2 registered a Kd of less than 0.001 nM. In assay [2], this molecule returned a Kd of 20.8 nM. Also, in assay [3], the EC50 is greater than 100 nM and the “Max Absorbance” value worked out at 0.64.

B3: DGL534 (bispecific antibody, V domains shown)
V domain 1: QVQLVESGGGLVQAGGSLRLSCLASGRTSNYFMGWFRQAPGKEREFVAAISRSGGGTWYADSVKGRFAISRDNAKNTVNLQMNSLKREDTAVYYCAADRRTGTSVYTVDEYDYWGQGTQVTVEP
V domain 2: QVQLVESGGGLVQPGGSLRLSCAASGFTFSNYAMSWVRQAPGKGLEWVSAINSDGTSTSYADSVKGQFTISRDNAKNTLYLQMNSLKPEDTAVYYCTKWEGDTDSDYKFKDYWGQGTQVTVEP
notes: 115B1 x 19B2
B3: the Kd in assay [1] came out at 0.706 nM; in assay [2] it was 59.5 nM. Moreover, the EC50 in assay [3] was 4.5e-10 M (implied). Also, the “Max Absorbance” value in assay [3] worked out at 0.69.

B4: DGL586 (bispecific antibody, V domains shown)
V domain 1: QVQLVESGGGLVQAGGSLRLSCAASGRTFSSYVMGWFRQAPGQEREFVAAIMRNGIMTYYADSVKGRFTISRDNAKNTVYLQMNTLKPDDTAVYYCAAASRVGVSISQSSSYTSWGQGTQVTVEP
V domain 2: QVQLVESGGGLVQPGGSLRLSCAASGFTFSNYAMSWVRQAPGKGLEWVSAINSDGTSTSYADSVKGQFTISRDNAKNTLYLQMNSLKPEDTAVYYCTKWEGDTDSDYKFKDYWGQGTQVTVEP
notes: 258B1 x 19B2
Consider B4, for which the affinity in assay [1], expressed as Kd, was 0.768 nM. The molecule also showed a Kd in assay [2] of 7.26 nM. In assay [3], the EC50 was 7.7e-11 M (implied) and the “Max Absorbance” value worked out at 0.6.

B5: DGL570 (bispecific antibody, V domains shown)
V domain 1: QVQLVESGGGLVQAGGSLRLSCAASRSISSFNEMAWYRQAPGEQRELVATIVSTVGFTNYADSVKGRFTISRDNAKNTVYLQMNSLKAEDTAVYYCNARRISTDYWGQGTQVTVEP
V domain 2: QVQLVESGGGLVQPGGSLRLSCAASGFTFSSKAMHWFRQAPGKGLEWVSSINSGGAITYYKDSVKGRFTVSRDNAKNILYLEMNSLKPEDTALYYCATDTDGRTRGQGTQVTVEP
notes: 233B1 x 64B2
As for B5, the Kd in assay [1] came to 7.66 nM. Besides, in assay [2], binding was put at a Kd of 1.38 nM. Moreover, in assay [3], the EC50 was greater than 100 nM and the “Max Absorbance” value came to 1.44.

B6: DGL482 (bispecific antibody, V domains shown)
V domain 1: QVQLVESGGGLVQAGGSLRLSCAASARIFNSYAVAWFRQTPGKEREFVASISWSGGSTNYADSVKGRFTISRDNAKNTVFLQMNSLKPADTAVYYCAADRNYYPSVLGKYTYWGQGTQVTVEP
V domain 2: QVQLVESGGGLVQPGGSLRLSCAASGFTFSSKAMHWFRQAPGKGLEWVSSINSGGAITYYKDSVKGRFTVSRDNAKNILYLEMNSLKPEDTALYYCATDTDGRTRGQGTQVTVEP
notes: 67B1 x 64B2
On to B6, for which binding in assay [1] was characterised by a dissociation constant (Kd) of 7.4 nM. The molecule further had a Kd in assay [2] of 6.83 nM. Besides, in assay [3], the EC50 was 2.9e-09 M (implied) and the “Max Absorbance” value amounted to 0.68.

B7: DGL605 (bispecific antibody, V domains shown)
V domain 1: QLQLVESGGGLVQPGGSLRLSCAASGFTFSSYGMSWVRQAPGKGLEWVSYISAGGGTTTYVDFVKGRFTISRDNAKNMLYLQMNSLKPEDTAVYYCVHAADGSRGQGTQVTVEP
V domain 2: QVQLVESGGGLVQPGGSLRLSCAASGFTFEPYDMSWFRQAPGKGPEWVSAIDKGGGAGATYYADSVKGRFTISRDNAKKTLYLQMKSLKPEDTAVYYCAITAGPYSDSTPRVAYRGEGTQVTVEP
notes: 238B1 x 93B2
Consider B7, for which binding in assay [1] was characterised by a dissociation constant (Kd) of 1.87 nM. The Kd in assay [2] turned out to be 2.25 nM. For the same molecule, in assay [3], the EC50 was 4.6e-10 M (implied) and the “Max Absorbance” value was 0.74.

B8: DGL412 (bispecific antibody, human IgG1, kappa)
heavy 1: not shown
heavy 2: QVQLVESGGGLVRPGGSLRLSCAASGFTFSSNGMHWFRQAPGKGLEWVSSIGSGGTSIYYADSVKGRFTISRDNAKNTLYLQMNSLKSDDTAVYYCSKEVTGATRGQGTQVTVEPKSSDKTHTCPPCPAPEAAGAPSVFLFPPKPKDTLMISRTPEVTCVVVDVSHEDPEVKFNWYVDGVEVHNAKTKPREEQYNSTYRVVSVLTVLHQDWLNGKEYKCKVSNKALPAPIEKTISKAKGQPREPQVCTLPPSRDELTKNQVSLSCAVKGFYPSDIAVEWESNGQPENNYKTTPPVLDSDGSFFLVSKLTVDKSRWQQGNVFSCSVMHEALHNRFTQKSLSLSPG
light: DIQMTQSPSSLSASVGDRVTITCRASQGIGNYLAWFQQRPGKAPKSLIYAASSLQSGVPSKFSGSGSGTDFTLTISSLQPADFAIYYCQQYNIYPYTFGPGTRLEIKRTVAAPSVFIFPPSDEQLKSGTASVVCLLNNFYPREAKVQWKVDNALQSGNSQESVTEQDSKDSTYSLSSTLTLSKADYEKHKVYACEVTHQGLSSPVTKSFNRGEC
notes: 85801_05G01A x 13B2
On to B8, for which the values for the Kd in assay [1] and in assay [2] were 2.21 nM and 11.3 nM, respectively. The EC50 in assay [3] was greater than 100 nM. Also, the “Max Absorbance” value in assay [3] worked out at 1.28.

B9: DGL444 (bispecific antibody, human IgG1, lambda)
heavy 1: not shown
heavy 2: QVQLVQSGAEVKKPGASVKVSCKASGYTFIGYYIHWVRQAPGQGLEWMGWINPHSGGTNYAQKFQGRVTMTRDTSISTAYMELSRLRSDDTAIYYCTKEANNWGYAFDIWGQGTMVTVSSASTKGPSVFPLAPSSKSTSGGTAALGCLVKDYFPEPVTVSWNSGALTSGVHTFPAVLQSSGLYSLSSVVTVPSSSLGTQTYICNVNHKPSNTKVDKKVEPKSCDKTHTCPPCPAPEAAGAPSVFLFPPKPKDTLMISRTPEVTCVVVDVSHEDPEVKFNWYVDGVEVHNAKTKPREEQYNSTYRVVSVLTVLHQDWLNGKEYKCKVSNKALPAPIEKTISKAKGQPREPQVCTLPPSRDELTKNQVSLSCAVKGFYPSDIAVEWESNGQPENNYKTTPPVLDSDGSFFLVSKLTVDKSRWQQGNVFSCSVMHEALHNRFTQKSLSLSPG
light: not shown
notes: 195B1 x 85802_08F20A
In the case of B9, the Kd in assay [1] was 0.386 nM. In assay [2], this molecule returned a Kd of 8.96 nM. For the same molecule, in assay [3], the EC50 is 1.5e-10 M (implied) and the “Max Absorbance” value is 0.61.

B10: DGL601 (bispecific antibody, human IgG1, lambda)
heavy 1: not shown
heavy 2: QVQLVESGGGLVQPGGSLRLSCAASGFTFSNYAMSWVRQAPGKGLEWVSAINSDGTSTSYADSVKGQFTISRDNAKNTLYLQMNSLKPEDTAVYYCTKWEGDTDSDYKFKDYWGQGTQVTVEPKSSDKTHTCPPCPAPEAAGAPSVFLFPPKPKDTLMISRTPEVTCVVVDVSHEDPEVKFNWYVDGVEVHNAKTKPREEQYNSTYRVVSVLTVLHQDWLNGKEYKCKVSNKALPAPIEKTISKAKGQPREPQVCTLPPSRDELTKNQVSLSCAVKGFYPSDIAVEWESNGQPENNYKTTPPVLDSDGSFFLVSKLTVDKSRWQQGNVFSCSVMHEALHNRFTQKSLSLSPG
light: SSELTQDPAVSVALGQTVRITCQGDSLSSYYAGWYQQKPGQAPVLVIYGKNNRPSGIPDRFSGSSSEDTASLTITGAQAEDEADYYCNSRDSSDNHLVFGGGTKLTVLGQPKAAPSVTLFPPSSEELQANKATLVCLISDFYPGAVTVAWKADSSPVKAGVETTTPSKQSNNKYAASSYLSLTPEQWKSHRSYSCQVTHEGSTVEKTVAPTECS
notes: 85801_04M04A x 19B2
The molecule B10 registered a Kd in assay [1] of 0.682 nM. The affinity in assay [2], expressed as Kd, was 1.63 nM. In assay [3], the EC50 was 6.6e-11 M (implied) and the “Max Absorbance” value came out at 0.79.

B11: DGL487 (bispecific antibody, V domains shown)
V domain 1: QVQLVESGGGLVQAGGSLRLSCAASARIFNSYAVAWFRQTPGKEREFVASISWSGGSTNYADSVKGRFTISRDNAKNTVFLQMNSLKPADTAVYYCAADRNYYPSVLGKYTYWGQGTQVTVEP
V domain 2: QVQLQESGPGLVKPSQTLSLTCTVSGGSITTNYYYWSWIRQPPGKGLEWMGAIAYSGSTYYSPSLKSRTSISRDTSKNQFTLQLSSVTPEDTAVYYCASGINFYSNYPTLNEYDYWGQGTQVTVEP
notes: 67B1 x 190B2
With B11, the Kd in assay [1] is 16.1 nM; in assay [2] it was 5.49 nM. In addition, the EC50 in assay [3] was 3.1e-09 M (implied). Also, in assay [3], the “Max Absorbance” value was 0.64.

B12: DGL607 (bispecific antibody, V domains shown)
V domain 1: QVQLVESGGGLMQAGGSLRLSCALSRGIFSAYAMGWFRQVQGKEREFVSGISRSGSTTDYVDTAKGRFTISRDNARDTVYLQMNSLKPEDTAVYYCAAVTGTFPSSTYHNANAYHHWGQGTQVTVEP
V domain 2: QVQLVESGGGLVQAGGSLKLSCAASGGTFSSYAMGWFRQAPGKEREFVAVIMRSGDTTAYVDSVKGRFTVSRDNAKNTVYLQMNSLKPEDAAVYFCAAGRPVTRTYYHTYTYPHDYDYWGQGTQVTVEP
notes: 86B1 x 278B2
Turning to B12, binding in assay [1] was put at a Kd of 11.8 nM. This molecule also yielded a Kd in assay [2] of 27.4 nM. For the same molecule, in assay [3], the EC50 was 7e-09 M (implied) and the “Max Absorbance” value is 0.61.
